In patent US20110294738A1, “PTHR1 RECEPTOR COMPOUNDS” (priority 2008, published 2011):
Each block holds one molecule with its values, some of them ahead of it. * marks the point of attachment. Palmitoyl = CCCCCCCCCCCCCCCC(=O)*

Legend:
PTHR1 = target: T1, PTHR1 (Rattus norvegicus, UniProt P25961); assay: cAMP screening assay using DiscoveRX XS+ kit (PTH1-34 dose-response in UMR-106 cells); settings: compound 10 μM
T1 sequence (P25961 27-591): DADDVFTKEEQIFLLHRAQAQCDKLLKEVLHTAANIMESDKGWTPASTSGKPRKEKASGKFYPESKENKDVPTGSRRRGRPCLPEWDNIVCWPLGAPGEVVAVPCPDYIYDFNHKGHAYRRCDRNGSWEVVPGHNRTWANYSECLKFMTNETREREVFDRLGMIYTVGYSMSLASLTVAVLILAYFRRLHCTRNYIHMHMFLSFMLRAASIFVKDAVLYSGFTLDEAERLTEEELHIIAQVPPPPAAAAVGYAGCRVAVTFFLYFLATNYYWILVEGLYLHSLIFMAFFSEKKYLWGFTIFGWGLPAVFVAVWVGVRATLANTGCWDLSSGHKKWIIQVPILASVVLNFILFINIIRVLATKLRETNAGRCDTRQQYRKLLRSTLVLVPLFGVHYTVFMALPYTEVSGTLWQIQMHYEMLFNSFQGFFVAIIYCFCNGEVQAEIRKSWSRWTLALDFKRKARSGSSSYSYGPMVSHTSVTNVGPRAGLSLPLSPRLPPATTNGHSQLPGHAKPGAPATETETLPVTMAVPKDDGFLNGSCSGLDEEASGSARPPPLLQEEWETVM
Method: cAMP Screening Assay Using DiscoveRX XS+ Kit
UMR-106 cells were seeded in 96-well white plates at 10K cells/well in growth media. Twenty four hours after seeding, cell media was removed by gentle dumping and replaced with 30 μL of compounds diluted to 10 μM final concentration in assay buffer (Hank's balanced Salt Solution, 20 mM HEPES, pH 7.4, 0.1 μM IBMX). After 30 minute incubation at room temperature, 10 μL human PTH1-34 serial diluted in assay buffer was added. Cells were incubated at 37° C. for 15 minutes before 10 μL of water soluble analog of forskolin, NKH477 was added to final concentration of 10 μM followed by 60 minute incubation at room temperature. DiscoveRX cAMP XS+ kit reagents were then added following manufacture protocol. Briefly, 10 μL of antibody was added to each well followed by 40 μL of ED/Lysis buffer mix (1/5/19 for Galacon-star/Emerald/Lysis buffer and then 1:1 with ED). After 1 hour incubation, 40 μL of EA reagent was added followed by at least 1 hour incubation before the plates were read on TopCount reader. Data was analyzed using GraphPad Prism. PTH1-34 dose-response curves were fitted using non-linear curve fit (Y=Bottom+(Top−Bottom)/(1+10̂((Log EC50−X)*HillSlope))). PTH1-34 EC50 values calculated in the presence of compounds were compared to that in the presence of vehicle control. The ratio of the EC50 values were calculated and presented as fold shift (EC50 compound/EC50 vehicle). The effect of compounds on PTH1-34 stimulated maximal response was also assessed and was presented percent inhibition (1−(Emax compound/Emax vehicle)).

Sequence of PTHR1 receptor (P25961 whole entry): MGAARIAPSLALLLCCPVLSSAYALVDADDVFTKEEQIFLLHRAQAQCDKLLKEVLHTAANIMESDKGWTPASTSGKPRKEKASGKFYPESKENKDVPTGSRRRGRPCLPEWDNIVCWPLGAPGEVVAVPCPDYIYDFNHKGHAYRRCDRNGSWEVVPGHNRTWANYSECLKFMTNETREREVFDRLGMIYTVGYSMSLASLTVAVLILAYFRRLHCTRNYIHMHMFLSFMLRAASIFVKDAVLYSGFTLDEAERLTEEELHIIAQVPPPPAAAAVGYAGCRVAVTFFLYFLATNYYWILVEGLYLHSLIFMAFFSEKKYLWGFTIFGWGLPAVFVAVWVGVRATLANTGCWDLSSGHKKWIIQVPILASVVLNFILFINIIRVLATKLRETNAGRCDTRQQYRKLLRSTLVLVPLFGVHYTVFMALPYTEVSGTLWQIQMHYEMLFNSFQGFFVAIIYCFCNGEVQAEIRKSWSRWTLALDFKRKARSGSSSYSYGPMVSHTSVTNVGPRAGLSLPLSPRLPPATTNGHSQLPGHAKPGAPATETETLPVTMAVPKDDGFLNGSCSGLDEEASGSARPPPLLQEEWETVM

Molecule: LYLHSLIFMAFFSEKKYLWGFT [Compound 34]
Fold Shift of EC50 (PTHR1; PTH1-34 EC50 compound/EC50 vehicle): 1.2
Inhibition of Maximal Response (PTHR1; PTH1-34 stimulated maximal response, 1−(Emax compound/Emax vehicle)): 4.20%

B2: Compound 70 (peptide)
peptide: Palmitoyl-TNAGRSDTRQQYRF-NH2
SMILES: CCCCCCCCCCCCCCCC(=O)N[C@H](C(=O)N[C@@H](CC(N)=O)C(=O)N[C@@H](C)C(=O)NCC(=O)N[C@@H](CCCNC(=N)N)C(=O)N[C@@H](CO)C(=O)N[C@@H](CC(=O)O)C(=O)N[C@H](C(=O)N[C@@H](CCCNC(=N)N)C(=O)N[C@@H](CCC(N)=O)C(=O)N[C@@H](CCC(N)=O)C(=O)N[C@@H](Cc1ccc(O)cc1)C(=O)N[C@@H](CCCNC(=N)N)C(=O)N[C@@H](Cc1ccccc1)C(N)=O)[C@@H](C)O)[C@@H](C)O
Fold Shift of EC50 (PTHR1 receptor): 2 fold
Inhibition of Maximal Response (PTHR1 receptor): 15.1%

B3: Compound 3 (peptide)
peptide: Palmitoyl-LAYFRRLHSTRNY-NH2
SMILES: CCCCCCCCCCCCCCCC(=O)N[C@@H](CC(C)C)C(=O)N[C@@H](C)C(=O)N[C@@H](Cc1ccc(O)cc1)C(=O)N[C@@H](Cc1ccccc1)C(=O)N[C@@H](CCCNC(=N)N)C(=O)N[C@@H](CCCNC(=N)N)C(=O)N[C@@H](CC(C)C)C(=O)N[C@@H](Cc1c[nH]cn1)C(=O)N[C@@H](CO)C(=O)N[C@H](C(=O)N[C@@H](CCCNC(=N)N)C(=O)N[C@@H](CC(N)=O)C(=O)N[C@@H](Cc1ccc(O)cc1)C(N)=O)[C@@H](C)O
Fold Shift of EC50 (PTHR1 receptor): 0.7 fold
Inhibition of Maximal Response (PTHR1 receptor): -51.4%

B6: Compound 60 (peptide)
peptide: Palmitoyl-RETNAGRSDTRQQYRK-NH2
SMILES: CCCCCCCCCCCCCCCC(=O)N[C@@H](CCCNC(=N)N)C(=O)N[C@@H](CCC(=O)O)C(=O)N[C@H](C(=O)N[C@@H](CC(N)=O)C(=O)N[C@@H](C)C(=O)NCC(=O)N[C@@H](CCCNC(=N)N)C(=O)N[C@@H](CO)C(=O)N[C@@H](CC(=O)O)C(=O)N[C@H](C(=O)N[C@@H](CCCNC(=N)N)C(=O)N[C@@H](CCC(N)=O)C(=O)N[C@@H](CCC(N)=O)C(=O)N[C@@H](Cc1ccc(O)cc1)C(=O)N[C@@H](CCCNC(=N)N)C(=O)N[C@@H](CCCCN)C(N)=O)[C@@H](C)O)[C@@H](C)O
Fold Shift of EC50 (PTHR1 receptor): 3.3 fold
Inhibition of Maximal Response (PTHR1 receptor): 4.3%

B8: Compound 59 (peptide)
peptide: Palmitoyl-RETNAGRSDTRQQYRKLL-NH2
SMILES: CCCCCCCCCCCCCCCC(=O)N[C@@H](CCCNC(=N)N)C(=O)N[C@@H](CCC(=O)O)C(=O)N[C@H](C(=O)N[C@@H](CC(N)=O)C(=O)N[C@@H](C)C(=O)NCC(=O)N[C@@H](CCCNC(=N)N)C(=O)N[C@@H](CO)C(=O)N[C@@H](CC(=O)O)C(=O)N[C@H](C(=O)N[C@@H](CCCNC(=N)N)C(=O)N[C@@H](CCC(N)=O)C(=O)N[C@@H](CCC(N)=O)C(=O)N[C@@H](Cc1ccc(O)cc1)C(=O)N[C@@H](CCCNC(=N)N)C(=O)N[C@@H](CCCCN)C(=O)N[C@@H](CC(C)C)C(=O)N[C@@H](CC(C)C)C(N)=O)[C@@H](C)O)[C@@H](C)O
Fold Shift of EC50 (PTHR1 receptor): 5.2 fold
Inhibition of Maximal Response (PTHR1 receptor): 3%

B9: Compound 71 (peptide)
peptide: Palmitoyl-SGRVLATKLR-NH2
SMILES: CCCCCCCCCCCCCCCC(=O)N[C@@H](CO)C(=O)NCC(=O)N[C@@H](CCCNC(=N)N)C(=O)N[C@H](C(=O)N[C@@H](CC(C)C)C(=O)N[C@@H](C)C(=O)N[C@H](C(=O)N[C@@H](CCCCN)C(=O)N[C@@H](CC(C)C)C(=O)N[C@@H](CCCNC(=N)N)C(N)=O)[C@@H](C)O)C(C)C
Fold Shift of EC50 (PTHR1 receptor): 0.8 fold
Inhibition of Maximal Response (PTHR1 receptor): 13.5%

B11: Compound 67 (peptide)
peptide: Palmitoyl-DTRQQYRKLLKS-NH2
SMILES: CCCCCCCCCCCCCCCC(=O)N[C@@H](CC(=O)O)C(=O)N[C@H](C(=O)N[C@@H](CCCNC(=N)N)C(=O)N[C@@H](CCC(N)=O)C(=O)N[C@@H](CCC(N)=O)C(=O)N[C@@H](Cc1ccc(O)cc1)C(=O)N[C@@H](CCCNC(=N)N)C(=O)N[C@@H](CCCCN)C(=O)N[C@@H](CC(C)C)C(=O)N[C@@H](CC(C)C)C(=O)N[C@@H](CCCCN)C(=O)N[C@@H](CO)C(N)=O)[C@@H](C)O
Fold Shift of EC50 (PTHR1 receptor): 6 fold
Inhibition of Maximal Response (PTHR1 receptor): 6.9%

B12: Compound 65 (peptide)
peptide: Palmitoyl-AGRSDTRQQYRKLLKS-NH2
SMILES: CCCCCCCCCCCCCCCC(=O)N[C@@H](C)C(=O)NCC(=O)N[C@@H](CCCNC(=N)N)C(=O)N[C@@H](CO)C(=O)N[C@@H](CC(=O)O)C(=O)N[C@H](C(=O)N[C@@H](CCCNC(=N)N)C(=O)N[C@@H](CCC(N)=O)C(=O)N[C@@H](CCC(N)=O)C(=O)N[C@@H](Cc1ccc(O)cc1)C(=O)N[C@@H](CCCNC(=N)N)C(=O)N[C@@H](CCCCN)C(=O)N[C@@H](CC(C)C)C(=O)N[C@@H](CC(C)C)C(=O)N[C@@H](CCCCN)C(=O)N[C@@H](CO)C(N)=O)[C@@H](C)O
Fold Shift of EC50 (PTHR1 receptor): 14.7 fold
Inhibition of Maximal Response (PTHR1 receptor): -0.359

B13: Compound 69 (peptide)
peptide: Palmitoyl-TNAGRSDTRQQYRK-NH2
SMILES: CCCCCCCCCCCCCCCC(=O)N[C@H](C(=O)N[C@@H](CC(N)=O)C(=O)N[C@@H](C)C(=O)NCC(=O)N[C@@H](CCCNC(=N)N)C(=O)N[C@@H](CO)C(=O)N[C@@H](CC(=O)O)C(=O)N[C@H](C(=O)N[C@@H](CCCNC(=N)N)C(=O)N[C@@H](CCC(N)=O)C(=O)N[C@@H](CCC(N)=O)C(=O)N[C@@H](Cc1ccc(O)cc1)C(=O)N[C@@H](CCCNC(=N)N)C(=O)N[C@@H](CCCCN)C(N)=O)[C@@H](C)O)[C@@H](C)O
Fold Shift of EC50 (PTHR1 receptor): 5.2 fold
Inhibition of Maximal Response (PTHR1 receptor): 2.5%

Further lines, results first:

Fold Shift of EC50 (PTHR1 receptor): 1.1 fold
Inhibition of Maximal Response (PTHR1 receptor): -5.4%
B1: Compound 62 (peptide)
peptide: Palmitoyl-RETNAGRSDTRQQY-NH2
SMILES: CCCCCCCCCCCCCCCC(=O)N[C@@H](CCCNC(=N)N)C(=O)N[C@@H](CCC(=O)O)C(=O)N[C@H](C(=O)N[C@@H](CC(N)=O)C(=O)N[C@@H](C)C(=O)NCC(=O)N[C@@H](CCCNC(=N)N)C(=O)N[C@@H](CO)C(=O)N[C@@H](CC(=O)O)C(=O)N[C@H](C(=O)N[C@@H](CCCNC(=N)N)C(=O)N[C@@H](CCC(N)=O)C(=O)N[C@@H](CCC(N)=O)C(=O)N[C@@H](Cc1ccc(O)cc1)C(N)=O)[C@@H](C)O)[C@@H](C)O

Fold Shift of EC50 (PTHR1 receptor): 16.4 fold
Inhibition of Maximal Response (PTHR1 receptor): -39%
B4: Compound 66 (peptide)
peptide: Palmitoyl-RSDTRQQYRKLLKS-NH2
SMILES: CCCCCCCCCCCCCCCC(=O)N[C@@H](CCCNC(=N)N)C(=O)N[C@@H](CO)C(=O)N[C@@H](CC(=O)O)C(=O)N[C@H](C(=O)N[C@@H](CCCNC(=N)N)C(=O)N[C@@H](CCC(N)=O)C(=O)N[C@@H](CCC(N)=O)C(=O)N[C@@H](Cc1ccc(O)cc1)C(=O)N[C@@H](CCCNC(=N)N)C(=O)N[C@@H](CCCCN)C(=O)N[C@@H](CC(C)C)C(=O)N[C@@H](CC(C)C)C(=O)N[C@@H](CCCCN)C(=O)N[C@@H](CO)C(N)=O)[C@@H](C)O

Fold Shift of EC50 (PTHR1 receptor): 0.7 fold
Inhibition of Maximal Response (PTHR1 receptor): -47.6%
B5: Compound 61 (peptide)
peptide: Palmitoyl-RETNAGRSDTRQQYRF-NH2
SMILES: CCCCCCCCCCCCCCCC(=O)N[C@@H](CCCNC(=N)N)C(=O)N[C@@H](CCC(=O)O)C(=O)N[C@H](C(=O)N[C@@H](CC(N)=O)C(=O)N[C@@H](C)C(=O)NCC(=O)N[C@@H](CCCNC(=N)N)C(=O)N[C@@H](CO)C(=O)N[C@@H](CC(=O)O)C(=O)N[C@H](C(=O)N[C@@H](CCCNC(=N)N)C(=O)N[C@@H](CCC(N)=O)C(=O)N[C@@H](CCC(N)=O)C(=O)N[C@@H](Cc1ccc(O)cc1)C(=O)N[C@@H](CCCNC(=N)N)C(=O)N[C@@H](Cc1ccccc1)C(N)=O)[C@@H](C)O)[C@@H](C)O

Fold Shift of EC50 (PTHR1 receptor): 7 fold
Inhibition of Maximal Response (PTHR1 receptor): -0.1%
B7: Compound 64 (peptide)
peptide: Palmitoyl-TNAGRSDTRQQYRKLLKS-NH2
SMILES: CCCCCCCCCCCCCCCC(=O)N[C@H](C(=O)N[C@@H](CC(N)=O)C(=O)N[C@@H](C)C(=O)NCC(=O)N[C@@H](CCCNC(=N)N)C(=O)N[C@@H](CO)C(=O)N[C@@H](CC(=O)O)C(=O)N[C@H](C(=O)N[C@@H](CCCNC(=N)N)C(=O)N[C@@H](CCC(N)=O)C(=O)N[C@@H](CCC(N)=O)C(=O)N[C@@H](Cc1ccc(O)cc1)C(=O)N[C@@H](CCCNC(=N)N)C(=O)N[C@@H](CCCCN)C(=O)N[C@@H](CC(C)C)C(=O)N[C@@H](CC(C)C)C(=O)N[C@@H](CCCCN)C(=O)N[C@@H](CO)C(N)=O)[C@@H](C)O)[C@@H](C)O

Fold Shift of EC50 (PTHR1 receptor): 12.4 fold
Inhibition of Maximal Response (PTHR1 receptor): -0.0684
B10: Compound 68 (peptide)
peptide: Palmitoyl-TNAGRSDTRQQYRKLL-NH2
SMILES: CCCCCCCCCCCCCCCC(=O)N[C@H](C(=O)N[C@@H](CC(N)=O)C(=O)N[C@@H](C)C(=O)NCC(=O)N[C@@H](CCCNC(=N)N)C(=O)N[C@@H](CO)C(=O)N[C@@H](CC(=O)O)C(=O)N[C@H](C(=O)N[C@@H](CCCNC(=N)N)C(=O)N[C@@H](CCC(N)=O)C(=O)N[C@@H](CCC(N)=O)C(=O)N[C@@H](Cc1ccc(O)cc1)C(=O)N[C@@H](CCCNC(=N)N)C(=O)N[C@@H](CCCCN)C(=O)N[C@@H](CC(C)C)C(=O)N[C@@H](CC(C)C)C(N)=O)[C@@H](C)O)[C@@H](C)O
